Laboratory results: publication PMC7566563

Molecular target: Cglo-CDPS-S32A (Candidatus Glomeribacter gigasporarum) (UniProt G2JBB2)
Test: EMSA
Settings: 8 mM MgCl2; apparent Kd, 3 experiments; 3'-phenylalanylated; native E. coli modifications (s4U8, D16, D20, psi32, psi39, ms2i6A37, m7G46, acp3U47, T54, psi55); EMSA: 75 nM tRNA, 0.1-15 uM enzyme, 20 min at 4 C in buffer A (10 mM MOPS pH 6.7, 200 mM NaCl, 8 mM MgCl2, 5 mM 2-mercaptoethanol); native 12% gel in 90 mM …

**Q.** Phe-tRNAPhe was tested. Which Kd did it give?
**A.** Its Kd is 1600 nM.
